We go through one molecule from US20140056960A1, “Methods for Improving Fracture Healing and Bone Formation” (Imperial Innovations Limited, priority 2010, published 2014).

Entries after “also recorded” stand apart in the source; their conditions may differ.

In one experiment the test system is tibial fracture. The experiment is described as follows: murine tibial fracture model: callus mineralization (microCT) and histology after local administration at fracture site. The class given is in vivo, mouse. The settings on record: exogenous alarmin at fracture site days 0 and 1 (rmHMGB1 20 μL at 50 ng/ml); day 28 microCT. How it is done:
Percentage callus mineralization was determined from the fracture site to 1 mm proximally (mean+/−SEM). FIG. 5. Dose response of exogenous TNF-α in vivo. 20 μL of PBS with rhTNF-α at the corresponding dose was injected at the fracture site at days 0 and 1 in C57BI/6 mice. At day 28, mice were harvested and limbs scanned by microCT in a blinded fashion. Percentage callus mineralization was determined from the fracture site to 1 mm proximally (threshold density of 350 mg/cm^3). * p<0.05, ** p<0.01. FIG. 7A. […] Percentage callus mineralization was determined from the fracture site to 1 mm proximally (mean+/−SEM). FIG. 18. […] C57BI6 mice were subjected to fracture model with addition of 20 μL of rmHMGB1 at 50 ng/ml at the fracture site at days 0 and 1 compared to controls. Addition of exogenous S100A8 or S100A9 or S100A8/9 had no effect, possibly because the fracture environment may already contain optimal amounts of S100 A8 or A9 proteins. All mice were harvested at day 28 and limbs scanned by microCT in a blinded fashion. Percentage callus mineralization was determined from the fracture site to 1 mm proximally (mean+/−SEM). […] Inflammation plays a vital role in early fracture repair^11,12. In murine models, TNF-α, IL-1 and IL-6 are expressed at the fracture site within 24 hours of injury^13,14. Biphasic expression of TNF-α and IL-1β appears to be linked to the initiation of fracture repair and later to endochondral maturation^14,15. In our murine model, callus mineralization at day 28 was enhanced when TNF-α, at a concentration of 50 ng/kg was injected locally following injury (day 0) and 24 hours later.

The test system of experiment [1] is PBMCs. Kind of experiment: TNF-α production by PBMCs (ELISA, 14 hours). The class given is cell-based, human. The settings on record: PBMCs 1*10^5/ml, 10% FCS, alarmin at indicated doses. How it is done:
FIG. 10. […] (A) PBMCs at 1*10^5/ml were incubated in 10% fetal calf serum (FCS) with S100 A8 at indicated doses. […] (B) PBMCs at 1*10^5/ml were incubated in 10% FCS with S100 A8 at 0.5 μg/ml with the addition of either antibody to TLR4, TLR2 or isotype controls (not shown), or sRAGE over 14 hours. TNF-α levels were determined by ELISA.
FIG. 12. […] PBMCs at 1*10^5/ml were incubated in 10% FCS with S100 A8, S100 A9 or S100 A12 at the indicated doses over 14 hours. TNF-α levels were determined by ELISA.
FIG. 17. […] PBMCs at 1*10^5/ml were incubated in 10% FCS with HMGB1 or LPS at the indicated doses over 14 hours; TNF-α levels were determined by ELISA.
Background: An ELISA detects its analyte on a solid surface through an enzyme-linked reagent.

In experiment [2] the test system is PBMCs. Kind of experiment: IL-6 and IL-1β production by PBMCs stimulated with S100 A8 (ELISA). The class given is cell-based, human. The settings on record: S100 A8 0.5 μg/ml with antibody to TLR4, TLR2 or sRAGE, 14 hours. How it is done:
FIG. 13. […] PBMCs at 1*10^5/ml were incubated in 10% FCS with S100 A8 0.5 μg/ml with the addition of either antibody to TLR4, TLR2 or isotype controls, or sRAGE over 14 hours. IL-6 (A) and […] (B) levels were determined by ELISA.

The subject of experiment [3] is muscle derived stromal cells (MDSCs). Kind of experiment: osteogenic activity of supernatant from stimulated PBMCs: alkaline phosphatase in MDSCs over 7 d. The class given is cell-based, human. The conditions noted are these: S100 A8 at indicated doses (μg/ml) or LPS 10 ng/ml; MDSCs 7 d. How it is done:
FIG. 15. Supernatant from PBMCs stimulated with S100A8 but not LPS is osteogenic. PBMCs at 1*10^5/ml were stimulated with S100 A8 at indicated doses (μg/ml), or LPS at 10 ng/ml. The supernatants were harvested and filter-sterilised through a 0.2 μm filter. MDSCs were cultured in this S100 A8-stimulated supernatant over 7 d and alkaline phosphatase levels quantified.
FIG. 16. Osteogenic activity of supernatant from human monocytes exposed to varying doses of LPS.

B1: S100A8: alarmin; rhS100A8 added to human PBMCs (protein, UniProt P05109 1-93, looked up)
Protein S100-A8: MLTELEKALNSIIDVYHKYSLIKGNFHAVYRDDLKKLLETECPQYIRKKGADVWFKELDINTDGAVNFQEFLILVIKMGVAAHKKSHEESHKE
B1: the “fracture healing / percentage callus mineralization” value in the experiment with tibial fracture was “no effect”. Further, the “TNF-α production by PBMCs” value was “stimulates monocytes to produce TNF-α in a dose dependent manner; also recorded: dose-dependent increase in TNF-α production” in the experiment on PBMCs [1] (listed as S100 A8) and “resulted in production of TNF-α” in the experiment with PBMCs [1] (listed as rhS100A8). For the same molecule, the “receptor dependence of IL-6 and IL-1β production” value with PBMCs [2] is “produced by monocytes via TLR4 and also RAGE, but not TLR2”. Further, in experiment [3], the “osteogenic activity of stimulated PBMC supernatant (alkaline phosphatase)” value was “led to osteogenesis; also recorded: osteogenic”.
